Laboratory results taken from the supplement of paper PMC10126150.
± gives the standard deviation of the averaged measurements.

Tested on: ATP
Assay: switch fluorescence ratio, 500 uM ATP over buffer (Cy3 cluster intensity, sum of 5 cycles each) (fold (ratio)); higher = stronger signal-on switching upon ATP binding; sequences stand for … in TCGTCGGCAGCGTCAGATGTGTATAAGAGACAGTTTTTTTTTTTTTTTTTTTTTTTTT…TC
Settings: aptamer strand: ATP DNA aptamer (quencher-CACCTGGGGGAGTATTGCGGAGGAAGG + anchor), 100 nM annealed; ATP concentration: 500 uM
Method in brief: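 The fluorescence ratio divides summed target-cycle Cy3 intensity by summed buffer-cycle Cy3 intensity for each cluster and is averaged per switch-domain sequence. Cy3-labelled switching-strand clusters on a modified Illumina MiSeq flow-cell were annealed to 100 nM quencher-labelled ATP aptamer, then imaged in selection buffer and again after 15 min with 500 uM ATP at 22 °C. Five such cycles were run, with NaOH stripping and re-annealing between them, and clusters outside 100-1000 RFU were excluded.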
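Further: ATP exposure 15 min at 22 °C before imaging.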

In order of rising switch fluorescence ratio:
1. CGGAGGGAGG  0.928 ± 0.091
2. AGGGGCAGGA  0.941 ± 0.06
3. CGGTATTCCG  0.945 ± 0.017
4. GATGGGTCTG  0.948 ± 0.014
5. AATGCTTGTC  0.952 ± 0.048
6. GTGCTTAGGA  0.957 ± 0.029
7. TCGTTCAGTA  0.958 ± 0.014
8. TGTAGTTTTT  0.961 ± 0.025
9. TAAAGGTTCG  0.9618 ± 0.009
10. GCGTTAAGGG  0.964 ± 0.053
11. TGTAATGGGG  0.966 ± 0.015
12. CGGGGGAATG  0.967 ± 0.027
13. GAGGTAGTGG  0.968 ± 0.027
14. GCTAGATCGT  0.969 ± 0.033
15. AATAAGTTTT  0.969 ± 0.037
16. AAGTTTTCAG  0.97 ± 0.021
17. CGGGTTAAAA  0.9714 ± 0.0034
18. CGTTCAAGTA  0.973 ± 0.056
19. CTCGAGAGCT  0.973 ± 0.018
20. CGGGGAGTAT  0.975 ± 0.015
21. CGAGTGTCAG  0.976 ± 0.028
22. AAATGTGCGA  0.977 ± 0.019
23. GGATTGGAGT  0.977 ± 0.02
24. AGTATAGAAA  0.978 ± 0.0065
25. GGTTGACCCC  0.978 ± 0.027
26. AGTTTCCTTT  0.978 ± 0.032
27. ATAGTTCCAT  0.9783 ± 0.005
28. GTTTGTTGAG  0.979 ± 0.025
29. GTGGCTTAGG  0.9796 ± 0.0035
30. GCTCGTTTTG  0.981 ± 0.043
31. AATGGGGGAG  0.981 ± 0.0099
32. TATAAGGGGG  0.982 ± 0.021
33. GTAATAGGGC  0.983 ± 0.054
34. ATGCTTTCAG  0.983 ± 0.012
35. AGTTGTCAGT  0.983 ± 0.028
36. TAGGCCCCTG  0.985 ± 0.041
37. TTGCTTAAAA  0.9852 ± 0.0095
38. GAGAGTTTTC  0.985 ± 0.037
39. AGTTGTAAAG  0.985 ± 0.018
40. TTGGCTACAA  0.985 ± 0.037
41. TTCAAGGATA  0.986 ± 0.05
42. AAAATGCAG  0.9856 ± 0.0015
43. GGCTTTGAGT  0.9873 ± 0.0066
44. TGTTAGGGAG  0.987 ± 0.03
45. GGGTGGCTTT  0.9872 ± 0.0083
46. ATAGTTCTAC  0.987 ± 0.0074
47. AGAGAAGAT  0.988 ± 0.026
48. GTTGTTTTTT  0.988 ± 0.036
49. TCAATTCGAG  0.9884 ± 0.009
50. TTGTGGAACG  0.989 ± 0.019
51. TAAGTTGATC  0.989 ± 0.053
52. GCGCGACGGA  0.9905 ± 0.0014
53. GGGCATTGGT  0.991 ± 0.049
54. CCGTGTTTCT  0.9916 ± 0.0033
55. GTAAAGAGTT  0.992 ± 0.011
56. TTTAGTTTGC  0.992 ± 0.024
57. CTGTCGTGTC  0.9934 ± 0.003
58. ATGGACGTGT  0.9935 ± 0.0033
59. TGGGGTCTGT  0.993 ± 0.02
60. GTGTTTTCGT  0.993 ± 0.03
61. TGGGCG  0.994 ± 0.018
62. TCATTAAGAT  0.994 ± 0.053
63. TAGAGAATGG  0.994 ± 0.0086
64. TATGGAAGCA  0.994 ± 0.014
65. AGTAGGGGAC  0.994 ± 0.022
66. TTACGTGTTA  0.995 ± 0.041
67. CGAATATTTG  0.996 ± 0.026
68. GGGATCATAG  0.9961 ± 0.0072
69. CGGGGTTACT  0.9961 ± 0.0082
70. CTGGGCGGTT  0.9959 ± 0.0017
71. GATTAGGCAT  0.996 ± 0.039
72. GTTTAAGTTT  0.996 ± 0.022
73. ATGAGTATGT  0.9961 ± 0.0014
74. CGGGGTTTGC  0.997 ± 0.015
75. CATATCTAGC  0.997 ± 0.034
76. TAAAAGAGGA  0.9974 ± 0.0058
77. CAACATGGAG  0.9972 ± 0.0089
78. TTGAAGGCTT  0.997 ± 0.013
79. TTATTTGGCC  0.997 ± 0.032
80. TCCTTTAAGA  0.998 ± 0.036
81. TTGTTCGGTT  0.998 ± 0.024
82. TAAGCCGCCT  0.998 ± 0.016
83. CGGGGTGCCT  0.999 ± 0.024
84. GATTTTTTAT  0.999 ± 0.058
85. GGTCGCAGTT  0.999 ± 0.022
86. CGGGCAGTTG  0.9992 ± 0.0071
87. GGCGGGGACG  0.999 ± 0.022
88. GGGTACGCTT  1 ± 0.025
89. GCGATAAGAT  1.0048 ± 0.00093
90. AGGTTACGAG  1 ± 0.02
91. AAGTCTGCAG  1.002 ± 0.01
92. ATAGTTCCAG  1.002 ± 0.0087
93. CAAGGTCGGC  1 ± 0.04
94. TTAGAAAACT  1 ± 0.012
95. TTGACATGGG  1 ± 0.029
96. GGGTTGAGGG  1 ± 0.027
97. TTTATTGTTT  1 ± 0.011
98. TGTGGGGTTT  1 ± 0.057
99. TTTGATAAAT  1 ± 0.014
100. TTAAGACGGG  1.002 ± 0.0017
101. TCGAACTAGG  1 ± 0.018
102. AGTTGTGGTA  1.003 ± 0.01
103. TCGGTTTTTA  1 ± 0.043
104. TTTTTACATC  1 ± 0.021
105. AACGGTGCGG  1.01 ± 0.026
106. TGGTAATGGG  1.01 ± 0.049
107. GTTTCTTTCG  1.01 ± 0.067
108. ACGTGAGGTT  1.01 ± 0.059
109. GTGGAAAGGG  1.01 ± 0.041
110. GATGTTGTAT  1.01 ± 0.021
111. CGTTTAAGCG  1.01 ± 0.038
112. AATAAGGAGA  1.01 ± 0.019
113. AGATTAGGGT  1.01 ± 0.017
114. AATCGTCAGG  1.01 ± 0.012
115. TCACTGTTTC  1.011 ± 0.0076
116. TAATTGCGGT  1.007 ± 0.0045
117. TCGTAACAGG  1.01 ± 0.034
118. GATGACAGGG  1.01 ± 0.12
119. ATAGGGGTTT  1.013 ± 0.0055
120. TTCAGGATA  1.01 ± 0.033
121. TCATATTTTT  1.006 ± 0.0064
122. AGACAATTAG  1.01 ± 0.093
123. TGGGAGGAGG  1.01 ± 0.077
124. AGGGGTTTGA  1.01 ± 0.047
125. GGGGATGTAA  1.01 ± 0.013
126. AATCATTGTA  1.01 ± 0.039
127. AGCGTCTTGC  1.01 ± 0.059
128. ATGGACTAGG  1.02 ± 0.022
129. AATTTACATG  1.02 ± 0.024
130. AGCAGTTCCG  1.02 ± 0.044
131. AAATTTTACT  1.02 ± 0.031
132. AAGGGGCACT  1.02 ± 0.047
133. ATGGTGCGGG  1.02 ± 0.033
134. GGTACACAGC  1.02 ± 0.015
135. GGGGATGGCA  1.02 ± 0.012
136. TCTAGCCGCG  1.016 ± 0.0044
137. CGTTGAGGTG  1.02 ± 0.02
138. GATTGTAAAG  1.021 ± 0.01
139. AGGGGGGAGT  1.02 ± 0.031
140. CGTTTTTTAT  1.02 ± 0.031
141. TATGGTGTGC  1.02 ± 0.021
142. TAAAGGTTCT  1.02 ± 0.03
143. GGTCTTGGGC  1.02 ± 0.026
144. CGCGCCGGGC  1.03 ± 0.057
145. GAGATACTCT  1.03 ± 0.012
146. TTACAAGCGA  1.03 ± 0.019
147. GTTGGGGCAA  1.03 ± 0.02
148. TTGAGGCAGG  1.027 ± 0.0065
149. TTTTGAAGTC  1.03 ± 0.092
150. CGAGTCTTTG  1.03 ± 0.059
151. CTAACTGAG  1.03 ± 0.017
152. AGGTGTTGGT  1.03 ± 0.025
153. TTTTGGGGGT  1.03 ± 0.096
154. GAGACTGGTT  1.03 ± 0.034
155. GTAAAGGGGA  1.03 ± 0.044
156. CATTTATAAT  1.03 ± 0.02
157. GAAATACTTT  1.03 ± 0.014
158. TCTGAACAGG  1.03 ± 0.014
159. TCGTAATGTG  1.03 ± 0.033
160. AATTACTTTA  1.03 ± 0.029
161. TCCTGATTGC  1.03 ± 0.038
162. ACTTGACTTG  1.03 ± 0.018
163. CGGGACGGGC  1.04 ± 0.043
164. AGGAACGCGG  1.04 ± 0.018
165. TTAAGCCCTT  1.04 ± 0.036
166. AAGGAATAGC  1.044 ± 0.002
167. TGGGGCAAGG  1.04 ± 0.031
168. GTGATAATGG  1.037 ± 0.0077
169. CGTAGTTCGT  1.036 ± 0.0046
170. TACCAAAGAA  1.04 ± 0.026
171. ATATACTATG  1.05 ± 0.026
172. TTAGAACTCC  1.05 ± 0.036
173. GCACGCAGGA  1.054 ± 0.006
174. CGGGAAATAG  1.06 ± 0.02
175. TTGTAGCACG  1.07 ± 0.037
176. TTGTTCTTTT  1.07 ± 0.077
177. AACCTTATCA  1.07 ± 0.02
178. GCGGGATGGG  1.08 ± 0.07
179. AGGGTATCTC  1.08 ± 0.1
180. CTTAGCTAGT  1.09 ± 0.13
181. ACAATAACAC  1.095 ± 0.0093
182. TATGTAGGGG  1.09 ± 0.14
183. ATTGCCCGTT  1.09 ± 0.21
184. GTTTGTGTAC  1.11 ± 0.075
185. TTTTAAACAT  1.11 ± 0.09
186. ACGTGCAGTC  1.12 ± 0.083
187. GACAGACGGG  1.13 ± 0.049
188. GATACCTTTT  1.13 ± 0.24
189. TTTCCGAATG  1.13 ± 0.026
190. AGACAAATGC  1.19 ± 0.21
191. TCTCGTACCT  1.19 ± 0.12
192. TACAGGTGTG  1.24 ± 0.044
193. ACGTAATGTC  1.25 ± 0.12
194. ACGTAAAAGT  1.25 ± 0.41
195. GGTGGGAGTG  1.37 ± 0.66
196. TTTGCCAAAC  1.52 ± 0.55
197. TAGCAATGAA  1.53 ± 0.057
198. TCCTAGCACT  1.65 ± 0.12
199. CTTCGGTAAC  2.175 ± 0.0072
200. CCCCAGTCAA  3.3 ± 0.43
